Measurements published in PMC2680711.

Target: Alexa-546-labeled H3-H4(E63C) (UniProt P61830)
Test: other fluorescence titration

Vps75_(1−223) (Vps75 lacking the C-terminal acidic domain), sequence (P53853 1-223): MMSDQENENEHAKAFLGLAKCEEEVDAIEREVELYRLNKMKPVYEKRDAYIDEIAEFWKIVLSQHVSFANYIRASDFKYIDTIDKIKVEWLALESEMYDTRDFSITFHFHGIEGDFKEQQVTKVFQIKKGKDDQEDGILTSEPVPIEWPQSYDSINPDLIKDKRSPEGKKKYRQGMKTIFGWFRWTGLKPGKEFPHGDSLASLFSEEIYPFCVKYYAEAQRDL

Kd [nM] | Substance
150 | Rtt109 (recombinant, purified) (from UniProt Q07794 1-436) (enzyme)
13 | Vps75_(1−223) (Vps75 lacking the C-terminal acidic domain) (from UniProt P53853 1-223) (domain or fragment)
